Reference: PMC5942852 (PLoS Computational Biology, 2018)

What was measured:
Bee Hyaluronidase [1] = biological target: T1, Bee Hyaluronidase (Apis mellifera (honeybee)); experiment: SPR; ProteOn XPR36 (Bio-Rad), GLC chip; IgG captured on amine-coupled anti-human capture antibody (Human Antibody Capture Kit), antigen as analyte; 1x HBS-EP+ pH 7.4 with BSA 1 mg/ml; equilibrium or kinetic Langmuir model; conditions: both partners purified
T1 construct: also called the main allergen in bee venom

Bee Hyaluronidase [2] = biological target: T1, Bee Hyaluronidase; experiment: SPR; Biacore 4000, CM5 chip; IgG captured on amine-coupled anti-human capture antibody (Human Antibody Capture Kit), antigen as analyte; 1x HBS-EP+ pH 7.4 with BSA 1 mg/ml; equilibrium or kinetic Langmuir model; apparent KD; conditions: both partners purified

T1 sequence (heavy, as listed by the source): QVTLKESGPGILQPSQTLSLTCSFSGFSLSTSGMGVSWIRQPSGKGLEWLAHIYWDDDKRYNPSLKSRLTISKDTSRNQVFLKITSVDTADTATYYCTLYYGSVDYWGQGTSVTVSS

B1: WT 2J88 antibody (antibody, V domains shown)
VH: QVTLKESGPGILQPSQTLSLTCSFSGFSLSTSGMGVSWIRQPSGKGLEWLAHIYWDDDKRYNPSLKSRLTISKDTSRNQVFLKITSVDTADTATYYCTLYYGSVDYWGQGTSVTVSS
VL: DIQMTQSPASLSASVGETVTITCRASENIYSYLTWYQQKQGKSPQLLVYNAKTLAEGVPSRFSGSGSGTQFSLKISSLQPEDFGNYYCQHHYGTRTFGGGTRLEIK
notes: heavy-chain variable domain of the antibody in PDB 2J88; human IgG1 heavy constant region, from the vector pFUSEss-CHIg-hG1; light-chain variable domain of the antibody in PDB 2J88; human kappa constant region, from the vector pFUSEss-CLIg-hk; the abstract says one lambda and one kappa antibody were tested; Expressed as IgG (human IgG1 constant regions from pFUSE vectors) with the variable …
For B1, the Kd (Bee Hyaluronidase [1]) was 9.2 nM.

B2: L14_7 (antibody, V domains shown)
VH: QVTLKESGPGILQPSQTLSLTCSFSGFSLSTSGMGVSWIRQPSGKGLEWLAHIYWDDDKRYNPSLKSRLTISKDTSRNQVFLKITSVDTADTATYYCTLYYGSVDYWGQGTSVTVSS
VL: DIQMTQSPASLSASVGETVTITCRSSRDIKDYITWYQQKQGKSPQLLVYNAKTLAEGVPSRFSGSGSGTEFSLKISSLQPEDFGNYYCQHHYGTRTFGGGTRLEIK
notes: as the heavy-chain variable domain of m1 (PDB 2J88); human IgG1 heavy constant region, from the vector pFUSEss-CHIg-hG1; as the light-chain variable domain of m1 (PDB 2J88) with a designed L1 (cluster L1-11-2, six amino acid differences) and one difference in the L4 (DE) loop; human kappa constant region, from the vector pFUSEss-CLIg-hk; kappa inferred as for m1; IgG; Computational design (RAbD) …
Work on B2 yielded a Kd (Bee Hyaluronidase [1]) of 0.77 nM.

B3: WT 2J88 antibody Y38K (antibody, V domains shown)
VH: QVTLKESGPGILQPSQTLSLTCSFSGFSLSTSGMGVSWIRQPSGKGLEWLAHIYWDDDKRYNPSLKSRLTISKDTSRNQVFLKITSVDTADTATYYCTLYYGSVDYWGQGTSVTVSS
VL: DIQMTQSPASLSASVGETVTITCRASENIKSYLTWYQQKQGKSPQLLVYNAKTLAEGVPSRFSGSGSGTQFSLKISSLQPEDFGNYYCQHHYGTRTFGGGTRLEIK
notes: as the heavy-chain variable domain of m1 (PDB 2J88); human IgG1 heavy constant region, from the vector pFUSEss-CHIg-hG1; as the light-chain variable domain of m1 (PDB 2J88) with Y38K in L1; human kappa constant region, from the vector pFUSEss-CLIg-hk; kappa inferred as for m1; IgG; Position 38 is most likely AHo numbering; source: 293F cells, transfected (pFUSE vectors), purified (rProtein A …)
B3 showed a Kd (Bee Hyaluronidase [2]) of 4.3 nM.
